Consider two molecules from patent US20240142454A1 (UNIVERSITY OF KENTUCKY RESEARCH FOUNDATION, published 2024).

B1: immunizing peptide CGGGESVLTLK (peptide)
peptide: CGGGESVLTLK
modifications: also: conjugated to KLH for immunization
notes: Conjugated to KLH for immunization; also called peptide antigen; peptide ESVLTLK424
B2: mouse monoclonal antibody 26A6 (antibody, mouse IgG2b, kappa, V domains shown)
VH: EVQLQQSGPVLVKPGASVKMSCKASGYTFTDFYLNWVKQSHGKTLEWIGVINPYNGITRYNQKFGGTATLTVDKSSSTAYMELNSLTSEDSAVYYCSRGGKTYYFDYWGQGTTLTVSP
VL: DVVMTQSPLSLPVSLGDQASISCRSSQSLVHSNGNTYLHWYLQKPGQSPKLLIYKVSNRFSGVPDRFSGSGSGTDFTLKINRVEAEDLGVYFCSQSTHVPPVTFGGGTKLEIKR
notes: used as hybridoma supernatant or Protein G-purified; also called 26A6 mAb; hybridoma ATCC PTA-126751

Where no end group is shown, it is not given here.

Test [1] deals with B2. Description: competition in immunofluorescence of human brain sections. As to the method: Slides were baked in a 40° C. oven overnight, then deparaffinized using SafeClear (Fisher Scientific, Hampton, NH), and rehydrated through a series of alcohols and finally into PBS. Antigen retrieval was carried out in pressurized decloaking chamber (BioCare Medical, Concord, CA), according to manufacturer's directions using the Borg antigen retrieval solution (BioCare Medical, Concord, CA). Following antigen retrieval, slides were washed 3× in PBS. For sections designated for staining with the β-amyloid antibody downstream, the sections were treated with 70% formic acid for 5 mins, then washed. All sections were treated with 3% H₂O₂ in methanol to block endogenous […] activity. Slides were washed in PBS and sections were either stained for immunofluorescence or immunohistochemistry.
For immunofluorescence, sections were incubated in blocking solution (PBS with 3% bovine serum albumin, 5% goat serum, and 0.05% Triton X 100) for 30 minutes, and incubated overnight at room temperature in primary antibody in that same blocking solution. Primary antibodies used were: rabbit anti-GFAP (1:200; catalog #12389, Cell Signaling Technology, Danviers, MA) and mouse 26A6 hybridoma supernatants diluted 1:5 or 10 ug/ml of purified 26A6 antibody. Sometimes 75 μg/ml immunizing peptide was included with the 26A6 antibody as a negative control. […]

For test [2], the target named is B1. Description: ELISA on the immunizing peptide. As to the method: These mice were selected for further boosting and fusion with a Sp2/0 myeloma partner. The resulting hybridomas were screened first in ELISA assays to the immunizing peptide and secondly in Western blot assays to the uncleaved and cleaved CN, to confirm that they selectively bound the cleaved CN. A positive clone was identified-26A6. This clone was developed/subcloned further and characterized as to isotype. 26A6 is an IgG2b with a kappa light chain.
ELISA assays were carried out at GenScript. The immunizing peptide itself was bound to plates at a concentration of 1 μg/ml, 100 μl per well and supernatants from the hybridomas were used to bind to the peptide. An anti-IgG-HRP conjugated secondary antibody was used to detect the primary 26A6 antibody.
A general note: An ELISA detects its analyte on a solid surface through an enzyme-linked reagent.

As for B1, in test [1], the binding result is “binds”. For the molecule B2, in test [2], the binding result was “binds”.
